Test [1] addresses mCherry-(GGS)6-Rac1(1-188)-His8 (UniProt P63000). The test can be described thus: membrane recruitment assay on supported lipid bilayers (TIRF microscopy). Conditions: mCherry-Rac1 Q61L/P29S-His8 anchored on bilayers containing 2% Ni2+-NTA-DGS lipid; parent: est. 0.72; read off a plot.
For test [2], the target named is EGFP-tagged WRC, wild type (Sra1, Nap1, MBP-EGFP-HSPC300, MBP-Abi2(1-158), MBP-WAVE1(1-230)), Q7L576;Q9Y2A7;Q8WUW1;Q9NYB9;Q92558. The test is described as above. Conditions: WT EGFP-WRC; parent value is Rac1 WT loaded with GMPPNP (Rac1 WT GDP bar est. 0.045); parent: est. 0.23; read off a plot.
For test [3], the target named is GST-Rac1(1-188) (Q61L/P29S) (UniProt P63000). The test can be described thus: other; GST-dimer model, KD,1. Conditions: complex; chains chain;chain;chain;chain;chain.
Test [4] shares this target. The test can be described thus: other; GST-dimer model, KD,2 (second WRC). Conditions: complex; chains chain;chain;chain;chain;chain.
Test [5] has the same target. The test can be described thus: pull-down; equilibrium pull-down (EPD): 0.1 μM ΔWRC230, 0.01 to 140 μM GST-Rac1(1-188) (Q61L/P29S), Glutathione Sepharose; 20 mM HEPES pH 7, 100 mM NaCl, 5% glycerol, 2 mM MgCl2, 5 mM β-mercaptoethanol, 0.05% Triton X100; 4°C, 30 min; unbound WRC in the supernatant quantified by SDS-PAGE; fits in DynaFit.

We go through seven substances from article PMC5614565.

“EGFP-tagged WRC, wild type (Sra1, Nap1, MBP-EGFP-HSPC300, MBP-Abi2(1-158), MBP-WAVE1(1-230)) (from UniProt Q7L576;Q9Y2A7;Q8WUW1;Q9NYB9;Q92558) C179R”: the response in test [1] worked out at 0.36.
Take “EGFP-tagged WRC, wild type (Sra1, Nap1, MBP-EGFP-HSPC300, MBP-Abi2(1-158), MBP-WAVE1(1-230)) (from UniProt Q7L576;Q9Y2A7;Q8WUW1;Q9NYB9;Q92558) S969F”: in test [1], the response worked out at 0.8.
As to “EGFP-tagged WRC, wild type (Sra1, Nap1, MBP-EGFP-HSPC300, MBP-Abi2(1-158), MBP-WAVE1(1-230)) (from UniProt Q7L576;Q9Y2A7;Q8WUW1;Q9NYB9;Q92558) Y967A”, in test [1], the response was 0.12.
Take “mCherry-Rac1-His8 wild type (GMPPNP) Q61L; P29S”: in test [2], the response was determined as 0.72.
Consider “ΔWRC230 with Sra1 C179R (Sra1, Nap1, HSPC300, MBP-Abi2(1-158), MBP-WAVE1(1-230)), Q7L576 1-1253; Q9Y2A7 1-1128; Q8WUW1 1-75; Q9NYB9 1-158; Q92558 1-230”, for which the values for the dissociation constant Kd in test [3], in test [4] and in test [5] were 201 nM, 144 nM and 265 nM, respectively.
On to “ΔWRC230 with Sra1 Y967A (Sra1, Nap1, HSPC300, MBP-Abi2(1-158), MBP-WAVE1(1-230)), Q7L576 1-1253; Q9Y2A7 1-1128; Q8WUW1 1-75; Q9NYB9 1-158; Q92558 1-230”, for which, in test [5], the KD,A (A Site, first WRC, GST-dimer model) worked out at 11500 nM; the KD,A (A Site, single-site model) worked out at 10800 nM; the KD,A (A Site, two-site model) stood at 9600 nM; the KD,A’ (A Site of the second WRC, GST-dimer model) turned out to be 33 nM.
Regarding “ΔWRC230, wild type (Sra1, Nap1, HSPC300, MBP-Abi2(1-158), MBP-WAVE1(1-230)), Q7L576 1-1253; Q9Y2A7 1-1128; Q8WUW1 1-75; Q9NYB9 1-158; Q92558 1-230”, in test [3], the dissociation constant (Kd) – broadly, the free concentration of one partner at which half of the binding sites on the other are occupied at equilibrium, for simple one-to-one binding – came out at 67 nM. In test [5], the KD,A(D) (A Site of the D Site-bound WRC, sequential two-site model) is 262 nM; the KD,D (D Site, sequential two-site model) amounted to 169 nM; the KD,D (D Site, single-site model) amounted to 106 nM.
